First the molecules themselves.
B1: 682 (protein)
chain: LDNGLARTPTMGWLHWERFMCNLDCQEEPDSCISEKLFMEMAERMVTEGWKDAGYEYLCIDDCWMAPQRDSEGRLQADPQRFPHGIRQLANHVHSKGLKLGIYADVGNKTCAGFPGSFGYYDIDAQTFADWGVDLLKFDGCYCDSLENLADGYKHMSLALNRTGRPIVYSCEWPLYMWPFQKPNYTEIRQYCNHWRNFADIDDSWASIKSILDWTSRNQERIVDVAGPGGWNDPDMLVIGNFGLSWDQQVTQMALWAIMAAPLFMSNDLRAISPQAKALLQDKDVIAINQDPLGKQGYQLRKGDNFEVWERPLSGYAWAVAIINRQEIGGPRSYTIPVASLGKGVACNPACFITQLLPVKRQLGFYNWTSRLKSHINPTGTVLLQLENTMQTSLKDLL
modifications: Synthetic Polypeptide sequence of Variant No. 682 of mature Human GLA
B2: 643 (protein)
chain: B1 chain with T10P, Y316D, R325S
modifications: Synthetic Polypeptide sequence of Variant No. 643 of mature Human GLA
B3: 685 (protein)
chain: B1 chain with E43D, M253W, A257G, N305L, Y316D, W368A
modifications: Synthetic Polypeptide sequence of Variant No. 685 of mature Human GLA
B4: 642 (protein)
chain: B1 chain with T10P, E43D, A261G, N305L, Y316D, W368A
modifications: Synthetic Polypeptide sequence of Variant No. 642 of mature Human GLA
B5: 691 (protein)
chain: B1 chain with T10P, Y316D
modifications: Synthetic Polypeptide sequence of Variant No. 691 of mature Human GLA
B6: 684 (protein)
chain: B1 chain with Y316D, W368A
modifications: Synthetic Polypeptide sequence of Variant No. 684 of mature Human GLA
B7: 692 (protein)
chain: B1 chain with W256L, Y316D
modifications: Synthetic Polypeptide sequence of Variant No. 692 of mature Human GLA
B8: 644 (protein)
chain: B1 chain with L237P, Y316D
modifications: Synthetic Polypeptide sequence of Variant No. 644 of mature Human GLA
B9: 688 (protein)
chain: B1 chain with P228Q, Y316D
modifications: Synthetic Polypeptide sequence of Variant No. 688 of mature Human GLA
B10: 683 (protein)
chain: B1 chain with M39E, E43D, W246P, M253W, S273D, Y316D, W368A
modifications: Synthetic Polypeptide sequence of Variant No. 683 of mature Human GLA
B11: 693 (protein)
chain: B1 chain with Y316D, W368A
modifications: Synthetic Polypeptide sequence of Variant No. 693 of mature Human GLA
B12: 641 (protein)
chain: B1 chain with T10P, M39E, S266P, Y316D
modifications: Synthetic Polypeptide sequence of Variant No. 641 of mature Human GLA
B13: 690 (protein)
chain: B1 chain with T10P, M156V, Y316D
modifications: Synthetic Polypeptide sequence of Variant No. 690 of mature Human GLA
B14: 689 (protein)
chain: B1 chain with N305L, Y316D
modifications: Synthetic Polypeptide sequence of Variant No. 689 of mature Human GLA
B15: 687 (protein)
chain: B1 chain with Q290R, Y316D, W368A
modifications: Synthetic Polypeptide sequence of Variant No. 687 of mature Human GLA

Positions count from the first letter of the chain named.

The nature of one data set: HTP-analysis of yeast culture supernatants, no challenge (MUGal hydrolysis). The format is biochemical. Particulars: activity of the variant/activity of Rd7BB (SEQ ID NO: 44). The procedure, abridged: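 GLA variants were expressed in INVSc1 yeast grown in SD-Ura broth with glucose at 30° C., and culture supernatants were collected after 66-84 h. Supernatant was mixed with McIlvaine buffer pH 4.8 and MUGal (2 mM stock) in 50 mM citrate, 200 mM KCl, pH 4.6, incubated at 37° C. for 30-180 minutes, then quenched with sodium carbonate.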
In the case of B1, the “Relative Activity of GLA Variants After No Challenge (NC)” value was “+ (>0.5 to 1.5 relative activity over Rd7BB (SEQ ID NO: 44))”.
Still for that read-out and setting: next, B2: “+ (>0.5 to 1.5 relative activity over Rd7BB (SEQ ID NO: 44))”.
Same read-out and setting: then B3, with “+ (>0.5 to 1.5 relative activity over Rd7BB (SEQ ID NO: 44))”.
On the same count and under the same terms, then B4, with “+ (>0.5 to 1.5 relative activity over Rd7BB (SEQ ID NO: 44))”; and B5, with “+ (>0.5 to 1.5 relative activity over Rd7BB (SEQ ID NO: 44))”; and B6, with “+ (>0.5 to 1.5 relative activity over Rd7BB (SEQ ID NO: 44))”.
With B7, the “Relative Activity of GLA Variants After No Challenge (NC)” value is recorded as “− (<0.5 relative activity to Rd7BB (SEQ ID NO: 44))”.
Still for that read-out and setting: next, B8: “− (<0.5 relative activity to Rd7BB (SEQ ID NO: 44))”; B9: “+ (>0.5 to 1.5 relative activity over Rd7BB (SEQ ID NO: 44))”; B10: “+ (>0.5 to 1.5 relative activity over Rd7BB (SEQ ID NO: 44))”.
The same measure, in the same setting: then B11, with “+ (>0.5 to 1.5 relative activity over Rd7BB (SEQ ID NO: 44))”; and B12, with “− (<0.5 relative activity to Rd7BB (SEQ ID NO: 44))”; and B13, with “+ (>0.5 to 1.5 relative activity over Rd7BB (SEQ ID NO: 44))”.
On the same count and under the same terms, next, B14: “+ (>0.5 to 1.5 relative activity over Rd7BB (SEQ ID NO: 44))”; B15: “+ (>0.5 to 1.5 relative activity over Rd7BB (SEQ ID NO: 44))”.

A further data set can be described thus: HTP-analysis of supernatants pretreated with acid (MUGal hydrolysis). The data set is classed as biochemical. Particulars: activity of the variant/activity of Rd7BB (SEQ ID NO: 44); challenge at pH 3.5. An outline of the steps:
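Yeast INVSc1 supernatant, GLA variants; acid challenge: McIlvaine pH 3.3-4.3, 37° C., 1-3 h. Assay: MUGal in McIlvaine pH 4.8 plus citrate pH 4.3, 37° C., 30-180 min, Na2CO3 stop, Ex 355/Em 448 nm.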
B1: the “Relative Activity of GLA Variants After Challenge at pH 3.5” value (“Relative Activity … at pH 3.5” below) is reported as “+ (>0.5 to 1.5 relative activity over Rd7BB (SEQ ID NO: 44))”.
Still for that read-out and setting: next, B2: “− (<0.5 relative activity to Rd7BB (SEQ ID NO: 44))”.
Take B3: the “Relative Activity … at pH 3.5” value is listed as “− (<0.5 relative activity to Rd7BB (SEQ ID NO: 44))”.
The same measure, in the same setting: next, B4: “+ (>0.5 to 1.5 relative activity over Rd7BB (SEQ ID NO: 44))”; B5: “+ (>0.5 to 1.5 relative activity over Rd7BB (SEQ ID NO: 44))”.
Same read-out and setting: then B6, with “+ (>0.5 to 1.5 relative activity over Rd7BB (SEQ ID NO: 44))”; and B7, with “− (<0.5 relative activity to Rd7BB (SEQ ID NO: 44))”.
As for B8, the “Relative Activity … at pH 3.5” value was “− (<0.5 relative activity to Rd7BB (SEQ ID NO: 44))”.
The same measure, in the same setting: next, B9: “+ (>0.5 to 1.5 relative activity over Rd7BB (SEQ ID NO: 44))”.
Still for that read-out and setting: next, B10: “+ (>0.5 to 1.5 relative activity over Rd7BB (SEQ ID NO: 44))”; B11: “+ (>0.5 to 1.5 relative activity over Rd7BB (SEQ ID NO: 44))”; B12: “− (<0.5 relative activity to Rd7BB (SEQ ID NO: 44))”.
In the case of B13, the “Relative Activity … at pH 3.5” value is given as “− (<0.5 relative activity to Rd7BB (SEQ ID NO: 44))”.
Same read-out and setting: then B14, with “+ (>0.5 to 1.5 relative activity over Rd7BB (SEQ ID NO: 44))”.
Take B15: the “Relative Activity … at pH 3.5” value is “− (<0.5 relative activity to Rd7BB (SEQ ID NO: 44))”.

A further data set can be described thus: HTP-analysis of supernatants pretreated with base (MUGal hydrolysis). The format is biochemical. Particulars: activity of the variant/activity of Rd7BB (SEQ ID NO: 44); challenge at pH 7.5. The procedure, abridged:
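GLA variants secreted from yeast INVSc1; culture supernatants pre-incubated with McIlvaine buffer pH 7.0–8.2 or 200 mM bicarbonate pH 9.1–9.7 at 37° C. for 1–18 h. Residual activity: MUGal (4 mM stock) hydrolysis at pH 4.3–4.8, 37° C., 30–180 min, carbonate quench; fluorescence Ex 355/Em 448 nm.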
For the molecule B1, the “Relative Activity of GLA Variants After Challenge at pH 7.5” value (shortened to “Relative Activity … at pH 7.5”) was “+ (>0.5 to 1.5 relative activity over Rd7BB (SEQ ID NO: 44))”.
Same read-out and setting: next, B2: “+ (>0.5 to 1.5 relative activity over Rd7BB (SEQ ID NO: 44))”.
Take B3: the “Relative Activity … at pH 7.5” value is reported as “− (<0.5 relative activity to Rd7BB (SEQ ID NO: 44))”.
On the same count and under the same terms, next, B4: “+ (>0.5 to 1.5 relative activity over Rd7BB (SEQ ID NO: 44))”; B5: “+ (>0.5 to 1.5 relative activity over Rd7BB (SEQ ID NO: 44))”; B6: “+ (>0.5 to 1.5 relative activity over Rd7BB (SEQ ID NO: 44))”.
Same read-out and setting: next, B7: “− (<0.5 relative activity to Rd7BB (SEQ ID NO: 44))”.
Take B8: the “Relative Activity … at pH 7.5” value was “− (<0.5 relative activity to Rd7BB (SEQ ID NO: 44))”.
On the same count and under the same terms, next, B9: “− (<0.5 relative activity to Rd7BB (SEQ ID NO: 44))”; B10: “− (<0.5 relative activity to Rd7BB (SEQ ID NO: 44))”.
Same read-out and setting: next, B11: “+ (>0.5 to 1.5 relative activity over Rd7BB (SEQ ID NO: 44))”.
For B12, the “Relative Activity … at pH 7.5” value is recorded as “− (<0.5 relative activity to Rd7BB (SEQ ID NO: 44))”.
On the same count and under the same terms, next, B13: “− (<0.5 relative activity to Rd7BB (SEQ ID NO: 44))”; B14: “+ (>0.5 to 1.5 relative activity over Rd7BB (SEQ ID NO: 44))”.
Still for that read-out and setting: then B15, with “− (<0.5 relative activity to Rd7BB (SEQ ID NO: 44))”.
